Assay results: article PMC7854983
Read-outs that look alike come from different tables or passages of the source.

Legend:
YY1 (SILAC extract) = assay: pull-down, SILAC MS
GST-tagged YY1(Δ231-290) = GST-tagged YY1(Δ231-290) (UniProt P25490); assay: SEC
YY1 [1] = molecular target: T1, YY1 (Homo sapiens, UniProt P25490 1-414); assay: fluorescence anisotropy
YY1 del231-290 [2] = molecular target: T2, YY1 del231-290 (Homo sapiens, UniProt P25490 1-414, del231-290); assay: fluorescence anisotropy
GST-YY1 = GST-YY1 (Homo sapiens, UniProt P25490 1-414); assay: fluorescence anisotropy
YY1 [3] = molecular target: T1, YY1; assay: fluorescence anisotropy; remark: listed apart in the source
YY1 [4] = molecular target: T1, YY1; assay: fluorescence anisotropy; remark: listed apart in the source
YY1 del231-290 [5] = molecular target: T2, YY1 del231-290; assay: fluorescence anisotropy; remark: listed apart in the source
YY1 [6] = molecular target: T1, YY1; assay: fluorescence anisotropy; remark: listed apart in the source

For cMYC G4 biotin probe, which binding signal (SILAC ratio G4/M4) (YY1 (SILAC extract)) is on record?
Its binding signal (SILAC ratio G4/M4) is 1.77.

hTEL G4 biotin probe was tested. Which binding signal (SILAC ratio G4/M4) (YY1 (SILAC extract)) did it give?
Its binding signal (SILAC ratio G4/M4) is 2.02.

Which binding signal (SILAC ratio G4/M4) (YY1 (SILAC extract)) does the source give for cKIT G4 biotin probe here?
The binding signal (SILAC ratio G4/M4) was 1.92.

“GST-tagged YY1(Δ231-290) (from UniProt P25490 1-414)” was tested. Which stoichiometry N (GST-tagged YY1(Δ231-290)) did it give?
Its stoichiometry N is 2.

B1: cKIT G4 (structured_DNA)
DNA: AGGGAGGGCGCTGGGAGGAGGG
For B1, which Kd (YY1 [1]) is on record?
Its Kd is 0.0267 ± 0.0022 µM.

B2: cMYC G4 (structured_DNA)
DNA: TGAGGGTGGGGAGGGTGGGGA
Does B2 bind (YY1 del231-290 [2])?
Result: binds

What about the Kd (YY1 [1]) of the same molecule?
Its Kd is 0.0263 ± 0.0021 µM.

B3: hTEL G4 (structured_DNA)
DNA: AAAGGGTTAGGGTTAGGGTTAGGGAA
How did the Kd (YY1 [1]) turn out when B3 was run?
The Kd was 0.082 ± 0.0053 µM.

B4: YY1 consensus motif duplex (dsDNA)
DNA 1: TCCACGGCAGCCGCCATCTTGGCT
DNA 2: AGCCAAGATGGCGGCTGCCGTGGA
How did the Kd (GST-YY1) turn out when B4 was run?
The Kd was 0.0116 ± 0.0008 µM.

B5: cKIT M4 (ssDNA)
DNA: AGGGAGGGCTCTGTGAGGAGGG
For B5, which binding signal (YY1 [3]) is on record?
Its binding signal is > 10 fold lower affinity than cKIT G4.

B6: cMYC M4 (ssDNA)
DNA: TGAGGGTGAGGAGTGTGGGGA
With B6 as the molecule, how does the binding signal (YY1 [4]) read?
Its binding signal is > 10 fold lower affinity than cMYC G4.

What about the binding signal (YY1 del231-290 [5]) of the same molecule?
The binding signal was ~10 fold lower affinity than cMYC G4.

B7: hTEL M4 (ssDNA)
DNA: AAAGGGTTAGTGTTAGTGTTAGGGAA
Which binding signal (YY1 [6]) does the source give for B7 here?
Its binding signal is > 10 fold lower affinity than hTEL G4.
